Experimental findings from US20240175877A1 (GENERAL HOSPITAL, published 2024) are described below.

The target in experiment [1] is T1, Ara h 2 (peanut, UniProt Q6PSU2 23-172, 4-hydroxyproline at positions 67, 74, and 86; biotinylated in the BLI assays).
T1 construct: BLI: biotinylated (native) Ara h 2 on streptavidin sensors; also called conglutin-7; peanut allergen
T1 sequence: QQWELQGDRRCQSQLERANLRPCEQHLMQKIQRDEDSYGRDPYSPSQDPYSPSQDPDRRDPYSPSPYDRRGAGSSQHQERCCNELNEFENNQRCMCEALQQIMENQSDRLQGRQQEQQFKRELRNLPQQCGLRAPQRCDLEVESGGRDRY
In words: epitope bin summary.

The target of another experiment is T2, Peptide_009 (peanut).
T2 construct: also called peptide 9
T2 peptide: WELQGDRRCQSQLER
The experiment in a line: peptide microarray. The procedure:
(§1) The peptide mapping using microarrays was performed with 40 antibody samples diluted 1:1000 in blocking buffer (see below). Sample dilutions were incubated for 1 hour at 30° C. on multiwell microarray slides. The slides contained 21 individual mini-arrays (1 mini-array per sample dilution).
(§2) Subsequent to sample incubation, secondary fluorescently labeled anti-human-IgG antibody at 1 μg/ml was added into the corresponding wells and left to react for 1 hour.
(§3) Additional control incubations applying the secondary antibody only was performed in parallel on the microarray slides to assess false-positive binding to peptides.

The target in another experiment is T3, Peptide_012 (peanut).
T3 construct: also called peptide 12
T3 peptide: QSQLERANLRPCEQH
In words: peptide microarray. The procedure:
as §1, §2, §3

The next experiment concerns the target T4, Peptide_010 (peanut).
T4 construct: also called peptide 10
T4 peptide: QGDRRCQSQLERANL
In words: peptide microarray. The procedure:
as §1, §2, §3

The target in another experiment is T5, Peptide_011 (peanut).
T5 construct: also called peptide 11
T5 peptide: RRCQSQLERANLRPC
In words: peptide microarray. The procedure: as §1, §2, §3

Experiment [2] concerns the target T1, Ara h 2. In words: epitope summary.
The target in experiment [3] is T1, Ara h 2. The experiment in a line: SPR, Biacore 3000. The procedure:
Calculated equilibrium dissociative constants (K)) for antigen binding to anti-Ara h 2 antibodies was determined using a real-time surface plasmon resonance biosensor (Biacore 3000) assay.

B1: 27FU1P3A4 (antibody, IgG1, V domains shown)
VH: ESGGGLVQPGGSLRLSCVASGFPFDDFVFAWVRQAPGGGLEWVSAISSRRTNTFYADSVKGRFTISRDNTRKTVNLQMNSLRGEDTAVYYCAKGETRYLEWIIQSSGFDYWGPGTLVAVSS
VL: QSPSSLSASVGERVTITCRANQTISTYLNWYQQKVGKAPKSLIRAASSLESGVPSRFSGSGSGTDFTLTINSLQREDFATYYCQQTYNVPPTFGQGTRVELK
notes: recombinant IgG1
As to B1, in the experiment with Ara h 2 [1], the binding result was “binds”.

B2: 15FU1P3A1 (antibody, IgG1, V domains shown)
VH: LVQSGAEVKKPGASVKVSCKASGYTFTRYDINWVRQATGQGLEWMGWMNPKSGETGYAQKFHGRVIMSWNTSISTAYMELSSLRSEDTAVYYCTRGVDSGVWGQGTTVTVSS
VL: TQSPDSLAVSLGERATINCKSSQSVLDSSNNKKFLAWFQQKPGQRPKLLIYWASTRESGVPDRFTGSGSGTDFTLTISSLQAEDVAVYYCQQYYSPPHTFGQGTKLEIK
notes: recombinant IgG1
For the molecule B2, the binding result with Peptide_009, in the experiment with Peptide_012, with Peptide_010, with Peptide_011 and in the experiment with Ara h 2 [1] was “binds” in each case.

B3: 6BU4P2B1 (antibody, IgG1, V domains shown)
VH: VESGGGLIQPGRSLRLSCAVSGFSFDDYAMYWVRQVPGKGLEWVSGISWNSGTIEYADSVKGRFTISRDNAKKSLFLEMNSLRSEDTAIYYCAKGTGWELVSALENWGQGTVVTVSS
VL: QSPSSLSASVGNKVTITCRASQTISDYLNWYQQKPGKAPKLLIYAASSLQSAVPSRFAGSGSGTEFTLTISSLQPEDFATYYCQQSYSPPFTFGPGTKVDIK
notes: recombinant IgG1
In the case of B3, the binding result with Ara h 2 [1] is recorded as “binds”.

B4: 23BU2P3 (antibody, IgG1, V domains shown)
VH: QVQLVESGGGLVQPGRSLRLSCAASGFIFADYTMHWVRQSPGKDLEWVSRISWNSGGVEYADSVKGRFTISRDNAKNSLYLQMNSLRVEDTALYYCVKDNGYRAFDLWGLGTMVTVSS
VL: DVVMTQSPVSLPVTPGEPASISCRSSQSLVHSNGYNYLDWYLQKPGQSPQLLIYMGSNRASGVPDRFSGSGSGTDFTLKISRVEAEDVGVYYCMQSLQTWTFGQGTKVEIK
notes: recombinant IgG1
In the case of B4, the binding result with Ara h 2 [2] is “binds”.

B5: 15FU1P1A3 (antibody, V domains shown)
VH: QSGAEVKKPGASVKISCKASGYTFTTYAMHWVRQAPGQRLEWMGGINAGNGNPKYSEKFQDRVTITRDTSATTAYMELSSLRSEDTAVYYCARDAAGTRGNWLDPWGQGTLVTVSS
VL: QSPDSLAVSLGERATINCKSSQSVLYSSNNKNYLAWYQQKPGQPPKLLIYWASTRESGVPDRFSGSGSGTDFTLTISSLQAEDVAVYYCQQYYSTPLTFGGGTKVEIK
notes: recombinant IgG1
B5: the binding result with Ara h 2 [1] is given as “binds”.

B6: 13BU2T4 (antibody, IgG1, V domains shown)
VH: ESGPRLVKPSETLSLTCIVSGDSISSYYWGWIRQPAGRGLEWIGRIFTSGSTTYNPSLKSRVSMSVETSKNQFSLTLTSVTAADTAVYFCARDRRALSSDGNWYWYFDLWGRGTLVAVSS
VL: TQSPSSLSASVGDRVTITCRASQTITRNLNWYQQKSGEAPKLLIYGASILQSGVPSRFTGSGSGTDFTLTISNLQPEDFASYSCQQSDNTPRTFGQGTKVEIK
notes: recombinant IgG1
The molecule B6 registered a dissociation constant Kd in the experiment with Ara h 2 [3] of 1.43 pM. This lies in the picomolar range.

B7: 14FU2P1D6 (antibody, IgG1, V domains shown)
VH: ESGPGLVKPSETLSLTCTVSGDSISSYYWSWIRQPAGKGLEWIGRIFTSGSTNINPSLKSRVTMSVDTSKNQFSLQLGSVTAADTAIYYCAKHTRDFWSDDSRVHWYFNLWGRGTLVTVSS
VL: QSPGTLSLSPGERATLSCRASQSVSNNFLAWYQQQPGQAPSLLIYGASTRATGIPDRFSGSGSGTDFTLTISRLEPEDFAVYFCQQYDSSPYTFGQGTKLEIK
notes: recombinant IgG1; also called 14FU1P1D6
Consider B7, for which the binding result with Ara h 2 [1] is reported as “binds”.

B8: 11FUP1A2 (antibody, IgG1, V domains shown)
VH: ESGGAVVQPGGSLRLSCAASGFTVEDYTIHWVRQVPGKGLEWISLISWDGDRTAYTDSVKGRFTISRDNIKNSLYLLMNSLRTEDTALYYCVKDNGWRSFAYWGQGILVTVST
VL: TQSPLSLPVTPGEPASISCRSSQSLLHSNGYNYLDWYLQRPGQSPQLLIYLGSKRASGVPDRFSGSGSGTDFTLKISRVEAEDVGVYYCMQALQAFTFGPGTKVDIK
notes: recombinant IgG1
With B8, in the experiment with Ara h 2 [1], the binding result was “binds”.

B9: 13BU2T5 (antibody, V domains shown)
VH: QVQLQESGPGLVKPSETLSLTCTVSGGSMSSYYWGWIRQPAGRGLEWIGRIFTTGSTIYNASLNSRVSMSVDTSKNQFSLKLTSVTAADTALYFCVRDRRGRSHDSNWYWYFDLWGRGTLVTVSS
VL: RVIITCRASQTLSRNLNWYQQKPGEAPKLLIYGASTLQSGVPSRFTGSGSGTDFTLIISGLQPEDFATYYCQQSDNTPRTFGQGT
As for B9, the Kd with Ara h 2 [3] was 112 pM.

B10: 23BU2P31 (antibody, IgG1, V domains shown)
VH: QVQLQESGPGLVEPSETLSLTCTVSGDPFTSYYWTWIRQPAGKGLEWLGRIFTTGSTSYNPSLKSRVTMSVDTSKSQFSLKLTAVTAADTAVYYCARVRRYCSGGRCYPYFYMDVWGKGTTVIVSS
VL: DIRETQSPSTLSASVGDRVTITCRASESISSWLAWYQQKPGKAPKLLIYEASTLETGVPSRFSGSGSGTEFTLTIRSLQPDDFATYYCQHYNSDSLTFGGGTKVEIK
notes: recombinant IgG1
As for B10, in the experiment with Ara h 2 [2], the binding result is listed as “binds”.

B11: 23BU2P34 (antibody, IgG1, V domains shown)
VH: QVQLVESGGLVVQPGGSLRLSCEASGFTFDDYTMHWVRQSPQKGLEWVSLIRWDGSRTEYADSVKGRFTISRDNSKNSLYLQMNTLRADDSAFYFCVKDGGLRYFDSWGQGTLVTVSS
VL: EIVMTQSPLSLPVTPGEPASISCRSSQSLLHSNGIHYLDWYLQKPGQSPQLLIYLGSKRASGVPDRFSGSGSGTDFTLKISRVEAEDVGVYYCMQSLQTFTFGPGTKVDIK
notes: recombinant IgG1
Take B11: the binding result with Ara h 2 [2] is reported as “binds”.

B12: 89BU7P1B10 (antibody, IgG1, V domains shown)
VH: QESGPGLVKPSETLSLTCTVSGGSIGRHYWSWIRQPPGKGLEWIAYIYDSGSTKYNPSLESRVTISEDTSQNQFSLKLTSVTAADTAIYYCARHNAPYGGNSDDYFEFWGPGTLVTVSS
VL: TQSPSSLSASVGDRVTITCRANETISDYLNWYQGKPGTAPKPLIYAASSLQSGVPSRFSGSGSETYFTLTISSLQPEDFATYYCQQSYSVPLTFGGGTKVESK
notes: recombinant IgG1
For the molecule B12, the binding result in the experiment with Ara h 2 [1] is “binds”.

B13: 13BU2T3 (antibody, IgG1, V domains shown)
VH: GGGVVQPGTSLRLSCVASGFTFRDYSMHWVRQAPGKGLEWVSFIRFDGTTKDYRDSVKGRFIISRDDSKNTLYLQMTSLRVEDTALYYCAKDNGWRAFDHWGQGALVTVSS
VL: VMTQSPLSLPVTPGEAASISCRSSQSLLHRNGYIYLDWYLQRPGQSPQLLISFVSKRASGAPDRFSGSGSGTDFTLTISRVEAEDFGVYFCMQALETPWTFGPGTKLEIK
notes: recombinant IgG1
Regarding B13, in the experiment with Ara h 2 [3], the Kd amounted to 193 pM. In other words, the sub-nanomolar range.

B14: 13FU1P1A4 (antibody, IgG1, V domains shown)
VH: VQLVESGGTLGQPGGSLRLSCTASGFTFNRFAINWVRQAPGKGLEWVAAISGTGAVTYYADSVEGRFSISRENSNNTVFLEMNNLRGEDTAVYFCAKDRTPVTNYYGMDVWGQGTTVTVSS
VL: TQSPSSLSASVGDRVIITCRGSQTIDNYLNWYQQKPGKAPRLLISAASSLQGGVPSRFSGSGYGTDFTLTISSLQPEDFATYYCQQTSSTPYTFGQGTKVEIK
notes: recombinant IgG1
Take B14: in the experiment with Ara h 2 [1], the binding result was “binds”.

B15: 22BU2S4 (antibody, IgG1, V domains shown)
VH: RCKLQESGPGLVKPSESLSLTCNVSGMSISSYYWSWIRQPAGKGLEWIGRIFTTGSTKDNPSLKSRVTMSVDTSRNQFSLTLTSVTAADTAVYYCARLRRVVVPRVSWYFDLWGHGTLVTVSS
VL: TQSPSSLSASVGDRVTITCQASQDISKSLNWYHQKPGKAPTVLIYDASNLETGVPSRFSGSGSGTEFTFTISSLQSEDFGTYYCQQYDNVPMYTFGQGTKVETK
notes: recombinant IgG1
On to B15, for which the binding result with Ara h 2 [2] was “binds”.
